± gives the standard deviation of the averaged measurements.
Legend:
MCF7 = experiment: percentage of EdU-negative (G0-arrested) nuclei per well, 72 h; higher = more G0 arrest; conditions: reference: sequence is the full UniProt precursor, the tested protein was the secreted form or ectodomain
hTERT-HMEC = experiment: as above; conditions: reference: sequence is the full UniProt precursor, the tested protein was the secreted form or ectodomain
[1] = protein concentration 0.0225 µM
[2] = protein concentration 0.0187725 µM
[3] = protein concentration 0.187725 µM
[4] = protein concentration 0.0286875 µM
[5] = protein concentration 0.286875 µM
[6] = protein concentration 0.0095 µM
[7] = protein concentration 0.03125 µM
[8] = protein concentration 0.3125 µM
[9] = protein concentration 0.0165825 µM
[10] = protein concentration 0.165825 µM
[11] = protein concentration 0.0305714 µM
[12] = protein concentration 0.305714 µM
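Further: secreted proteins added to cultured cells, EdU pulse at the end, nuclei found by Hoechst imaging, EdU status from nuclear versus surrounding ring intensity ratio, PBS as neutral control.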

Sequence	percentage of EdU-negative (MCF7; [1]) [%]	percentage of EdU-negative (MCF7; protein concentration 0.225 µM) [%]	percentage of EdU-negative (hTERT-HMEC; [1]) [%]	percentage of EdU-negative (hTERT-HMEC; protein concentration 0.225 µM) [%]	other results
MKENYCLQAALVCLGMLCHSHAFAPERRGHLRPSFHGHHEKGKEGQVLQRSKRGWVWNQFFVIEEYTGPDPVLVGRLHSDIDSGDGNIKYILSGEGAGTIFVIDDKSGNIHATKTLDREERAQYTLMAQAVDRDTNRPLEPPSEFIVKVQDINDNPPEFLHETYHANVPERSNVGTSVIQVTASDADDPTYGNSAKLVYSILEGQPYFSVEAQTGIIRTALPNMDREAKEEYHVVIQAKDMGGHMGGLSGTTKVTITLTDVNDNPPKFPQSVYQMSVSEAAVPGEEVGRVKAKDPDIGENGLVTYNIVDGDGMESFEITTDYETQEGVIKLKKPVDFETKRAYSLKVEAANVHIDPKFISNGPFKDTVTVKISVEDADEPPMFLAPSYIHEVQENAAAGTVVGRVHAKDPDAANSPIRYSIDRHTDLDRFFTINPEDGFIKTTKPLDREETAWLNITVFAAEIHNRHQEAKVPVAIRVLDVNDNAPKFAAPYEGFICESDQTKPLSNQPIVTISADDKDDTANGPRFIFSLPPEIIHNPNFTVRDNRDNTAGVYARRGGFSRQKQDLYLLPIVISDGGIPPMSSTNTLTIKVCGCDVNGALLSCNAEAYILNAGLSTGALIAILACIVILLVIVVLFVTLRRQKKEPLIVFEEEDVRENIITYDDEGGGEEDTEAFDIATLQNPDGINGFIPRKDIKPEYQYMPRPGLRPAPNSVDVDDFINTRIQEADNDPTAPPYDSIQIYGYEGRGSVAGSLSSLESATTDSDLDYDYLQNWGPRFKKLADLYGSKDTFDDDS	25.4 ± 0.51	32.3 ± 2	5.18 ± 0.56	9.88 ± 1.5	
MKEYVLLLFLALCSAKPFFSPSHIALKNMMLKDMEDTDDDDDDDDDDDDDDEDNSLFPTREPRSHFFPFDLFPMCPFGCQCYSRVVHCSDLGLTSVPTNIPFDTRMLDLQNNKIKEIKENDFKGLTSLYGLILNNNKLTKIHPKAFLTTKKLRRLYLSHNQLSEIPLNLPKSLAELRIHENKVKKIQKDTFKGMNALHVLEMSANPLDNNGIEPGAFEGVTVFHIRIAEAKLTSVPKGLPPTLLELHLDYNKISTVELEDFKRYKELQRLGLGNNKITDIENGSLANIPRVREIHLENNKLKKIPSGLPELKYLQIIFLHSNSIARVGVNDFCPTVPKMKKSLYSAISLFNNPVKYWEMQPATFRCVLSRMSVQLGNFGM [Q9BXN1]					percentage of EdU-negative (MCF7; [2]): 26.18 ± 0.19%; percentage of EdU-negative (MCF7; [3]): 26.9 ± 3.7%; percentage of EdU-negative (hTERT-HMEC; [2]): 4.7 ± 0.51%; percentage of EdU-negative (hTERT-HMEC; [3]): 4.97 ± 0.19%
MKFFLLLFTIGFCWAQYSPNTQQGRTSIVHLFEWRWVDIALECERYLAPKGFGGVQVSPPNENVAIHNPFRPWWERYQPVSYKLCTRSGNEDEFRNMVTRCNNVGVRIYVDAVINHMSGNAVSAGTSSTCGSYFNPGSRDFPAVPYSGWDFNDGKCKTGSGDIENYNDATQVRDCRLVGLLDLALEKDYVRSKIAEYMNHLIDIGVAGFRLDASKHMWPGDIKAILDKLHNLNSNWFPAGSKPFIYQEVIDLGGEPIKSSDYFGNGRVTEFKYGAKLGTVIRKWNGEKMSYLKNWGEGWGFMPSDRALVFVDNHDNQRGHGAGGASILTFWDARLYKMAVGFMLAHPYGFTRVMSSYRWPRQFQNGNDVNDWVGPPNNNGVIKEVTINPDTTCGNDWVCEHRWRQIRNMVNFRNVVDGQPFTNWYDNGSNQVAFGRGNRGFIVFNNDDWTFSLTLQTGLPAGTYCDVISGDKINGNCTGIKIYVSDDGKAHFSISNSAEDPFIAIHAESKL	25 ± 4.2	31.3 ± 2.5	6.12 ± 0.67	7.06 ± 0.1	
MKFFLLLFTIGFCWAQYSPNTQQGRTSIVHLFEWRWVDIALECERYLAPKGFGGVQVSPPNENVAIYNPFRPWWERYQPVSYKLCTRSGNEDEFRNMVTRCNNVGVRIYVDAVINHMCGNAVSAGTSSTCGSYFNPGSRDFPAVPYSGWDFNDGKCKTGSGDIENYNDATQVRDCRLTGLLDLALEKDYVRSKIAEYMNHLIDIGVAGFRLDASKHMWPGDIKAILDKLHNLNSNWFPAGSKPFIYQEVIDLGGEPIKSSDYFGNGRVTEFKYGAKLGTVIRKWNGEKMSYLKNWGEGWGFVPSDRALVFVDNHDNQRGHGAGGASILTFWDARLYKMAVGFMLAHPYGFTRVMSSYRWPRQFQNGNDVNDWVGPPNNNGVIKEVTINPDTTCGNDWVCEHRWRQIRNMVIFRNVVDGQPFTNWYDNGSNQVAFGRGNRGFIVFNNDDWSFSLTLQTGLPAGTYCDVISGDKINGNCTGIKIYVSDDGKAHFSISNSAEDPFIAIHAESKL					percentage of EdU-negative (MCF7; [4]): 25.6 ± 0.39%; percentage of EdU-negative (MCF7; [5]): 26.4 ± 0.48%; percentage of EdU-negative (hTERT-HMEC; [4]): 5.1 ± 0.51%; percentage of EdU-negative (hTERT-HMEC; [5]): 11.4 ± 1.2%
MKFQGPLACLLLALCLGSGEAGPLQSGEESTGTNIGEALGHGLGDALSEGVGKAIGKEAGGAAGSKVSEALGQGTREAVGTGVRQVPGFGVADALGNRVGEAAHALGNTGHEIGRQAEDVIRHGADAVRGSWQGVPGHNGAWETSGGHGIFGSQGGLGGQGQGNPGGLGTPWVHGYPGNSAGSFGMNPQGAPWGQGGNGGPPNFGTNTQGAVAQPGYGSVRASNQNEGCTNPPPSGSGGGSSNSGGGSGSQSGSSGSGSNGDNNNGSSSGGSSSGSSSGGSSGGSSGGSSGNSGGSRGDSGSESSWGSSTGSSSGNHGGSGGGNGHKPGCEKPGNEARGSGESGIQNSETSPGMFNFDTFWKNFKSKLGFINWDAINKNQVPPPSTRALLYFSRLWEDFKQNTPFLNWKAIIEGADASSLQKRAGRDDQNYNYNQHAYPTAYGGKYSVKTPAKGGVSPSSSASRVQPGLLQWVKFW [Q6E0U4]					percentage of EdU-negative (MCF7; [6]): 27.8 ± 1.4%; percentage of EdU-negative (MCF7; protein concentration 0.095 µM): 27.7 ± 1.7%; percentage of EdU-negative (hTERT-HMEC; [6]): 4.68 ± 0.29%; percentage of EdU-negative (hTERT-HMEC; protein concentration 0.095 µM): 24.6 ± 4.2%
MKFSPAHYLLPLLPALVLSTRQDYEELEKQLKEVFKERSTILRQLTKTSRELDGIKVNLQSLKNDEQSAKTDVQKLLELGQKQREEMKSLQEALQNQLKETSEKAEKHQATINFLKTEVERKSKMIRDLQNENKSLKNKLLSGNKLCGIHAEESKKIQAQLKELRYGKKDLLFKAQQLTDLEQKLAVAKNELEKAALDRESQMKAMKETVQLCLTSVFRDQPPPPLSLITSNPTRMLLPPRNIASKLPDAAAKSKPQQSASGNNESSQVESTKEGNPSTTACDSQDEGRPCSMKHKESPPSNATAETEPIPQKLQMPPCSECEVKKAPEKPLTSFEGMAAREEKIL [Q86TE4]	26 ± 0.38	30.1 ± 1.1	5.34 ± 0.34	8.84 ± 1.3	
MKFTIVFAGLLGVFLAPALANYNINVNDDNNNAGSGQQSVSVNNEHNVANVDNNNGWDSWNSIWDYGNGFAATRLFQKKTCIVHKMNKEVMPSIQSLDALVKEKKLQGKGPGGPPPKGLMYSVNPNKVDDLSKFGKNIANMCRGIPTYMAEEMQEASLFFYSGTCYTTSVLWIVDISFCGDTVEN [Q9NS71]					percentage of EdU-negative (MCF7; [7]): 23 ± 2.2%; percentage of EdU-negative (MCF7; [8]): 25.4 ± 3.5%; percentage of EdU-negative (hTERT-HMEC; [7]): 4.8 ± 0.55%; percentage of EdU-negative (hTERT-HMEC; [8]): 5.56 ± 0.6%
MKFTTLLFLAAVAGALVYAEDASSDSTGADPAQEAGTSKPNEEISGPAEPASPPETTTTAQETSAAAVQGTAKVTSSRQELNPLKSIVEKSILLTEQALAKAGKGMHGGVPGGKQFIENGSEFAQKLLKKFSLLKPWA [Q9GZZ8]	25.6 ± 1.3	24.5 ± 0.39	4.93 ± 0.13	5.83 ± 0.8	
MKGFTATLFLWTLIFPSCSGGGGGKAWPTHVVCSDSGLEVLYQSCDPLQDFGFSVEKCSKQLKSNINIRFGIILREDIKELFLDLALMSQGSSVLNFSYPICEAALPKFSFCGRRKGEQIYYAGPVNNPEFTIPQGEYQVLLELYTEKRSTVACANATIMCS	28.5 ± 0.69	29.008 ± 0.011	4.8 ± 0.29	6.1 ± 0.31	
MKGICSDAILVLATSMWMAFAIDFPLPMASERGQLDKTIVECLKNVNKCWFLSYIKPSEPICGSDQVTYSSDCHLCSKILFEGLNITKLYDGQCENS [P0C7L1]	23.2 ± 2.9	26.1 ± 0.36	5.76 ± 1.6	7.03 ± 0.23	
MKGILVAGITAVLVAAVESLSCVQCNSWEKSCVNSIASECPSHANTSCISSSASSSLETPVRLYQNMFCSAENCSEETHITAFTVHVSAEEHFHFVSQCCQGKECSNTSDALDPPLKNVSSNAECPACYESNGTSCHGKPWKCYEEEQCVFLVAELKNDIESKSLVLKGCSNVSNATCQFLSGENKTLGGVIFRKFECANVNSLTPTSAPTTSHNVGSKASLYLLALASLLLRGLLP [Q6UX82]	26.8 ± 1.8	24 ± 2.7	4.63 ± 0.18	5.88 ± 0.78	
MKGLAAALLVLVCTMALCSCAQVGTNKELCCLVYTSWQIPQKFIVDYSETSPQCPKPGVILLTKRGRQICADPNKKWVQKYISDLKLNA					percentage of EdU-negative (MCF7; [9]): 26.2 ± 1.5%; percentage of EdU-negative (MCF7; [10]): 24.6 ± 2.4%; percentage of EdU-negative (hTERT-HMEC; [9]): 5.34 ± 1.1%; percentage of EdU-negative (hTERT-HMEC; [10]): 5.89 ± 1.1%
MKGSIFTLFLFSVLFAISEVRSKESVRLCGLEYIRTVIYICASSRWRRHQEGIPQAQQAETGNSFQLPHKREFSEENPAQNLPKVDASGEDRLWGGQMPTEELWKSKKHSVMSRQDLQTLCCTDGCSMTDLSALC [Q9Y5Q6]	25.5 ± 2.3	27.6 ± 3	5.011 ± 0.042	4.97 ± 0.86	
MKGWGWLALLLGALLGTAWARRSQDLHCGACRALVDELEWEIAQVDPKKTIQMGSFRINPDGSQSVVEVPYARSEAHLTELLEEICDRMKEYGEQIDPSTHRKNYVRVVGRNGESSELDLQGIRIDSDISGTLKFACESIVEEYEDELIEFFSREADNVKDKLCSKRTDLCDHALHISHDEL [Q9Y2B0]	23.4 ± 3.1	25.3 ± 1.3	5.14 ± 0.16	6.74 ± 0.6	
MKHSLNALLIFLIITSAWGGSKGPLDQLEKGGETAQSADPQWEQLNNKNLSMPLLPADFHKENTVTNDWIPEGEEDDDYLDLEKIFSEDDDYIDIVDSLSVSPTDSDVSAGNILQLFHGKSRIQRLNILNAKFAFNLYRVLKDQVNTFDNIFIAPVGISTAMGMISLGLKGETHEQVHSILHFKDFVNASSKYEITTIHNLFRKLTHRLFRRNFGYTLRSVNDLYIQKQFPILLDFKTKVREYYFAEAQIADFSDPAFISKTNNHIMKLTKGLIKDALENIDPATQMMILNCIYFKGSWVNKFPVEMTHNHNFRLNEREVVKVSMMQTKGNFLAANDQELDCDILQLEYVGGISMLIVVPHKMSGMKTLEAQLTPRVVERWQKSMTNRTREVLLPKFKLEKNYNLVESLKLMGIRMLFDKNGNMAGISDQRIAIDLFKHQGTITVNEEGTQATTVTTVGFMPLSTQVRFTVDRPFLFLIYEHRTSCLLFMGRVANPSRS					percentage of EdU-negative (MCF7; [11]): 27.6 ± 0.28%; percentage of EdU-negative (MCF7; [12]): 30 ± 1.5%; percentage of EdU-negative (hTERT-HMEC; [11]): 6.41 ± 0.77%; percentage of EdU-negative (hTERT-HMEC; [12]): 22.5 ± 9.3%

Source: the supplement of paper PMC11316812
